Reference: PMC5291263

Experiments:
[1] = biological target: T1, GB1-SRSF1 RRM2 WT (pseudo-RRM) (human, UniProt Q07955 107-203); experiment: ITC
GB1-SRSF1 RRM2 R142A = GB1-SRSF1 RRM2 R142A (human, UniProt Q07955 107-203, R142A); experiment: ITC
[2] = biological target: T1, GB1-SRSF1 RRM2 WT (pseudo-RRM); experiment: NMR

T1 sequence (Q07955 107-203): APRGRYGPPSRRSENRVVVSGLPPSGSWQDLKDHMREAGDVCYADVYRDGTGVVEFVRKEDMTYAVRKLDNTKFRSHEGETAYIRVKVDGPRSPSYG
Sequence of GB1-SRSF1 RRM2 R142A (Q07955 107-203 R142A): as the sequence (Q07955 107-203) above, with R36A counted along it

Row | Binder | Kd [1] | Kd (GB1-SRSF1 RRM2 R142A) | binding result [2]
1 | AGGAC (ssRNA) [5'-AGGAC-3' RNA] | 1 µM | 7 µM | 
2 | UGAAGGAC (ssRNA) [5'-UGAAGGAC-3' RNA] |  |  | binds
